Reference: US20120070446A1 (AstraZeneca / MedImmune, published 2012)

Experiments:
[1] = target: F protein of RSV A2 virus (on virus particles, neutralization assay) (Respiratory Syncytial Virus A2, UniProt P03420 26-574); experiment: cell-based or functional assay
[2] = target: T1, HIS-tagged recombinant F protein from RSV Long strain (Respiratory Syncytial Virus Long strain, UniProt P12568 26-524); experiment: direct ELISA, HIS-tagged F on Ni-NTA HisSorp plates
T1 construct: also called recombinant HIS tagged F protein; recombinant RSV F Long strain containing a poly HIS tag; not shown: poly HIS tag
T1 sequence (P12568 26-524): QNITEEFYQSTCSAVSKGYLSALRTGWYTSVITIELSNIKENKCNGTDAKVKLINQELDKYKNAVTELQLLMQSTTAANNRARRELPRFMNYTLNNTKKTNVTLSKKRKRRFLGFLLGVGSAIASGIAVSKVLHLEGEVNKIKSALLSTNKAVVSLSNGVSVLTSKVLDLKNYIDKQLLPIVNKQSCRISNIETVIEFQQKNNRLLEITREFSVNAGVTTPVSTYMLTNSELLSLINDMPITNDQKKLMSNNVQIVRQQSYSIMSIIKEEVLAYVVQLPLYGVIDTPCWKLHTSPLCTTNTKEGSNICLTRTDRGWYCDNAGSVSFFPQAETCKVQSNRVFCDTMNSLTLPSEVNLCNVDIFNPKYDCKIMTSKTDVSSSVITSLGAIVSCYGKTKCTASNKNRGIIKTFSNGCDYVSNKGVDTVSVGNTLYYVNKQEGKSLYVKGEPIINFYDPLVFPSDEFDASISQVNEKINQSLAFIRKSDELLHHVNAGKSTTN

B1: palivizumab (antibody, V domains shown)
VH: QVTLRESGPALVKPTQTLTLTCTFSGFSLSTSGMSVGWIRQPPGKALEWLADIWWDDKKDYNPSLKSRLTISKDTSKNQVVLKVTNMDPADTATYYCARSMITNWYFDVWGAGTTVTVSS
VL: DIQMTQSPSTLSASVGDRVTITCKCQLSVGYMHWYQQKPGKAPKLLIYDTSKLASGVPSRFSGSGSGTEFTLTISSLQPDDFATYYCFQGSGYPFTFGGGTKLEIK
[1]
  IC50 (ng/ml), RSV neutralizing activity, TCID50 culture assay on HEp2 cells with the RSV A2 virus: 152 ng/mL

B2: AM22 (recombinant AM22 mAb, human IgG1/Kappa) (antibody, V domains shown)
VH: QVQLVQSGAEVKKPGATVKVSCKISGHTLIKLSIHWVRQAPGKGLEWMGGYEGEVDEIFYAQKFQHRLTVIADTATDTVYMELGRLTSDDTAVYFCGTLGVTVTEAGLGIDDYWGQGTLVTVSS
VL: EIVLTQSPGTLSLSPGERATLSCRASQIVSRNHLAWYQQKPGQAPRLLIFGASSRATGIPVRFSGSGSGTDFTLTINGLAPEDFAVYYCLSSDSSIFTFGPGTKVDFK
notes: also called AM22 antibody; AM22 monoclonal antibody
[2]
  binding result: no binding
